Source: patent US20220401560A1, “PEPTIDE ENCAPSULATING FERRITIN” (Ajinomoto Co., Inc., priority 2019, published 2022)

Biological target: transferrin receptor TfR (human) (UniProt P02786)
Assay: cell-based or functional assay

Sequence of FAM-SV40 encapsulating FTH (P02794 whole entry): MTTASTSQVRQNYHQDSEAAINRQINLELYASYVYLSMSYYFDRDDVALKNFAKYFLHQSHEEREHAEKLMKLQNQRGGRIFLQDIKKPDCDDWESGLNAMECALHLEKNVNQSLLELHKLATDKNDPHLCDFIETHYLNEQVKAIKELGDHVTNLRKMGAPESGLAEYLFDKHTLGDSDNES

## FAM-SV40 encapsulating FTH (from UniProt P02794 1-183)
  concentration needed for fluorescence from 90% or more of HEK 293E cells (low TfR expression) by FACS: > 800 nM
  percent of fluorescent SKBR 3 cells (high TfR expression) by FACS at 100 nM FAM-SV40 encapsulating FTH: > 90%
  ratio of fluorescent cells, SKBR 3 (high TfR) against HEK 293E (low TfR), at 100 nM: 60 times
